Laboratory results published in patent US20080254465, “Assays for measuring nucleic acid binding proteins and enzyme activities” (BioVeris Corporation, published 2008).

B1: NF-kB consensus substrate, all phosphodiester (dsDNA)
DNA 1: AGTTGAGGGGACTTTCCCAGGC
DNA 2: GCCTGGGAAAGTCCCCTCAACT
B2: NF-kB consensus substrate, phosphorothioate (dsDNA)
DNA 1: AGTTGAGGGGACTTTCCCAGGC
DNA 2: GCCTGGGAAAGTCCCCTCAACT
modifications: PS within bracketed nucleotides AGTTGAGG (5') and CCCAGGC (3') of the labelled strand

How the values were obtained:
NF-kB p50 subunit [1] = target: T1, NF-kB p50 subunit (UniProt P19838 P19838:1-433); assay: footprint; DNase I protection, similar results to phosphorothioate substrate; settings: tags: recombinant, Promega; chain copies: 2 inferred
T1 sequence (P19838 1-433, one chain of several): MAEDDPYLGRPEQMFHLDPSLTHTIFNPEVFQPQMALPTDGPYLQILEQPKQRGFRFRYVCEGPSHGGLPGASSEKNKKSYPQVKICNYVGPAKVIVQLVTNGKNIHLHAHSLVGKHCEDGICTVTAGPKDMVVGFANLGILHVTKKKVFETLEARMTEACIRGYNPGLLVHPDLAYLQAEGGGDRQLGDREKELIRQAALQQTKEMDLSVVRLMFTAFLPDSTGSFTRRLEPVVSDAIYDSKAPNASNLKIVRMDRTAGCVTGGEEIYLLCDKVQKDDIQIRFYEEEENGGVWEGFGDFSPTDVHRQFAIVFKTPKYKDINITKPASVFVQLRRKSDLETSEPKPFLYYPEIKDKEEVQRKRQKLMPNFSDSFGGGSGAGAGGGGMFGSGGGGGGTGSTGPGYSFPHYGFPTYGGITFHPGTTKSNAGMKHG
Procedure: (§1) The labeled DNA substrate (50 fmol), poly dI-dC (1 ug, to reduce non-specific protein-DNA interactions) and varying amounts of recombinant NFkβ (p50 subunit) were combined in a 20 uL volume and incubated for 30 min. at room temperature. Dnase 1 (2 Units in a volume of 2 uL, Promega Corp.) was then added and the incubation was continued for an additional 30 min. at room temperature. The reaction was terminated and the biotin-labeled DNA sequences captured by in the addition of 10 µg of streptavidin Dynabeads (IGEN, International) in 0.3 ml PBS-1 containing 0.2 M EDTA, followed by incubation for 15 minutes. The reaction mixture was introduced into an ORIGEN Analyzer (IGEN International) running in Magnetic Capture Mode and the ECL signal from RuBpy on the magnetic beads was determined in the presence of a solution containing tripropylamine (ORIGEN Assay Buffer, IGEN International). A control was also run in the absence of Dnase to determine the ECL signal obtained from the uncleaved substrate. […] The addition of NFkβ gave a dose dependent increase in signal relative to that obtained from unprotected DNA, the magnitude of which approached, for high concentrations of NFkβ, the signal obtained in the absence of DNAse. The experiment was repeated with an DNA substrate with the same nucleotide sequence but containing only phosphodiester linkages and similar results were obtained.

SP-1 = SP-1 (UniProt P08047 P08047:2-785); assay: footprint; ECL 38880 vs 54041 unprotected; no DNase protection
Chain of SP-1 (P08047 2-785, one chain of several): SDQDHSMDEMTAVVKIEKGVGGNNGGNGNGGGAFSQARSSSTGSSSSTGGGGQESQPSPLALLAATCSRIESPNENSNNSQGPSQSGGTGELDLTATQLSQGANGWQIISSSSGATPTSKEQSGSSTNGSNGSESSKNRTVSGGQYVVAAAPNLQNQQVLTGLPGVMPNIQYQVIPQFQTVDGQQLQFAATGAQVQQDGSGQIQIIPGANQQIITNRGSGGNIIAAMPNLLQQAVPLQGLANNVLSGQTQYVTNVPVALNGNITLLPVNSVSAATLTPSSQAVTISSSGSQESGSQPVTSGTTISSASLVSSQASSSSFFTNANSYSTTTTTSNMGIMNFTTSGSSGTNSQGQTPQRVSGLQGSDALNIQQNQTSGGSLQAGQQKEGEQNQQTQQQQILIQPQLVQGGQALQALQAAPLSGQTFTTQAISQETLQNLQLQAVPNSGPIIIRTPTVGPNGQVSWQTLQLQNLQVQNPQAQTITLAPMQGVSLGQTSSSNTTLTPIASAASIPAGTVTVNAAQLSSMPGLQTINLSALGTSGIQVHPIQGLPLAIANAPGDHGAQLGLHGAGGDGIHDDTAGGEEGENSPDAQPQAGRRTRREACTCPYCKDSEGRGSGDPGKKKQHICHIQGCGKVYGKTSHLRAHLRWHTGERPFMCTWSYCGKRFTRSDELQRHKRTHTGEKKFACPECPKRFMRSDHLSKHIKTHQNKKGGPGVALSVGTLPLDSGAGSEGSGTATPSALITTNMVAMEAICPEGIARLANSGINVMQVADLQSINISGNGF
Procedure: (§2) The labeled DNA substrate (50 fmol), poly dI-dC (1 ug, to reduce non-specific protein-DNA interactions) and varying amounts of recombinant NFkβ (p50 subunit) were combined in a 20 uL volume and incubated for 30 min. at room temperature. Dnase 1 (2 Units in a volume of 2 uL, Promega Corp.) was then added and the incubation was continued for an additional 30 min. at room temperature. The reaction was terminated and the biotin-labeled DNA sequences captured by in the addition of 10 µg of streptavidin Dynabeads (IGEN, International) in 0.3 ml PBS-1 containing 0.2 M EDTA, followed by incubation for 15 minutes. The reaction mixture was introduced into an ORIGEN Analyzer (IGEN International) running in Magnetic Capture Mode and the ECL signal from RuBpy on the magnetic beads was determined in the presence of a solution containing tripropylamine (ORIGEN Assay Buffer, IGEN International). A control was also run in the absence of Dnase to determine the ECL signal obtained from the uncleaved substrate. […]
(§3) The specificity of the assay was determined by replacing the specific binding protein NFkβ with other DNA binding proteins specific for sequences not present on the DNA substrate (the phosphorothioate containing substrate was used).

NF-kB p50 subunit [2] = target: T1, NF-kB p50 subunit; assay: footprint; DNase I protection with ECL readout; dose dependent, signal 1729305 at 7 ng vs 96862 unprotected and 2591957 without DNase; poly dI-dC, room temperature; settings: tags: recombinant, Promega; chain copies: 2 inferred
Procedure: as §1

AP-2 = AP-2 (UniProt P05549 P05549:1-437); assay: footprint; ECL 32289 vs 54041 unprotected; no DNase protection; settings: chain copies: 2
Chain of AP-2 (P05549 whole entry, one chain of several): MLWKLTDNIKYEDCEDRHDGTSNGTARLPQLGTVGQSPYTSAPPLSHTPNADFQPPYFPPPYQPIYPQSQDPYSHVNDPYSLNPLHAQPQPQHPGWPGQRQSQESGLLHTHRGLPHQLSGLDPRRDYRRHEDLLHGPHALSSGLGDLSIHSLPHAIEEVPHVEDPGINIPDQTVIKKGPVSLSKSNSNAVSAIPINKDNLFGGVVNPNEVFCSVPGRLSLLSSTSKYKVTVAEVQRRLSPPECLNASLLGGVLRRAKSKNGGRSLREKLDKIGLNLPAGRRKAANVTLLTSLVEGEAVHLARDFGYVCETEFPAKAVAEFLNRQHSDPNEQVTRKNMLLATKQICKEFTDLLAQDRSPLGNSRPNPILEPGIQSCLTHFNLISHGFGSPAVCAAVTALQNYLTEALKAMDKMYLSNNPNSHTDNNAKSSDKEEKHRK
Procedure: as §2, §3

| Binder | binding result (NF-kB p50 subunit [1]) | binding result (SP-1) | binding result (NF-kB p50 subunit [2]) | binding result (AP-2) |
| --- | --- | --- | --- | --- |
| B1 | binds |  |  |  |
| B2 |  | no binding | binds | no binding |
